Data reported in paper PMC2329594, “A Minimal Fragment of MUC1 Mediates Growth of Cancer Cells” (PLoS ONE, 2008).

Target: the molecule itself
Experiment: gold nanoparticle aggregation (colour change); histidine-tagged peptides (100 uM in PBS) on NTA-Ni gold nanoparticles, alone or mixed; colour change after 15 minutes

| Protein | binding result |
| --- | --- |
| GGFLGLSNIKFRPGSVVVQLTLAFRE (peptide, UniProt P15941 1084-1109, looked up, MUC1, human; also called N-1084-1109-C; source: synthetic peptide) [MUC1_(SAD (self-aggregation domain)) peptide] | binds |
| VQLTLAFREGTINVHDVETQFNQYKTEAASRYNLTISDVSVSDVPFPF (peptide, UniProt P15941 1101-1148, looked up, MUC1, human; also called shifted frame peptide; N-1101-1148-C; source: synthetic peptide) [MUC1_(ecd-EXT) peptide] | binds |
